This note sets out measurements from patent US20040037843A1.

Assay [1] has as its target HLA-A*0201 (human). The assay is described as follows: competition with 125I probe peptide on purified HLA, gel filtration. To be noted: remark: other sources report otherwise.
Assay [2] deals with HLA-A*0203 (human). Described as above. To be noted: remark: other sources report otherwise.
For assay [3], the target named is HLA-A*6802 (human). The assay is described as follows: competition with 125I-labeled probe peptide for purified HLA, gel filtration. The conditions noted are these: remark: other sources report otherwise. On the technique in general: In gel filtration, larger molecules generally elute earlier.
Assay [4] concerns the target HLA-A*0206 (human). The description is as above. The conditions noted are these: remark: other sources report otherwise.
Assay [5] concerns the target HLA-A*0202 (human). The assay is described as follows: competition with 125I probe peptide on purified HLA, gel filtration. To be noted: remark: other sources report otherwise.
Assay [6] has as its target HLA-A*0206 (human). The description is as above. To be noted: remark: other sources report otherwise.
The target in assay [7] is HLA-A*0206 (human). To be noted: remark: other sources report otherwise.
Assay [8] has as its target HLA-A*0201 (human). As to the kind of experiment: competition with 125I-labelled probe peptide on purified HLA. To be noted: remark: other sources report otherwise.
Assay [9] deals with HLA-A*0202 (human). The description is as above. To be noted: remark: other sources report otherwise.
In assay [10] the target is HLA-A*0203 (human). The description is as above. To be noted: remark: other sources report otherwise.
The target of assay [11] is HLA-A*0206 (human). Described as above. The conditions noted are these: remark: other sources report otherwise.
The target of assay [12] is HLA-A*0202 (human). The assay is described as follows: competition with 125I-labeled probe peptide for purified HLA, gel filtration. The conditions noted are these: remark: other sources report otherwise.
The target of assay [13] is HLA-A*0201 (human). The assay is described as follows: inhibition of 125I probe peptide binding to purified HLA. To be noted: remark: other sources report otherwise.
Assay [14] deals with HLA-A*0203 (human). Described as above. The conditions noted are these: remark: other sources report otherwise.
For assay [15], the target named is HLA-A*6802 (human). The assay is described as above. The conditions noted are these: remark: other sources report otherwise.
Assay [16] addresses HLA-A*0206 (human). The assay is described as above. To be noted: remark: other sources report otherwise.
The target of a further assay is HLA-A*2401 (human). To be noted: scale: ratio.
Assay [17] addresses HLA-A*0201 (human). The conditions noted are these: remark: other sources report otherwise.
For assay [18], the target named is HLA-A*0203 (human). To be noted: remark: other sources report otherwise.
Assay [19] deals with HLA-A*6802 (human). As to the kind of experiment: competition with 125I probe peptide on purified HLA, gel filtration. To be noted: remark: other sources report otherwise.
The target of assay [20] is HLA-A*0202 (human). The assay is described as follows: competition with 125I-labelled standard peptide for purified HLA. The conditions noted are these: remark: other sources report otherwise.
Assay [21] has as its target HLA-A*0203 (human). As to the kind of experiment: inhibition of 125I probe peptide binding to purified HLA, gel filtration. The conditions noted are these: remark: other sources report otherwise.
For assay [22], the target named is HLA-A*1101 (human). To be noted: remark: other sources report otherwise.
Assay [23] deals with HLA-A*0202 (human). The conditions noted are these: remark: other sources report otherwise.
In assay [24] the target is HLA-A*0202 (human). The assay is described as follows: inhibition of 125I probe peptide binding to purified HLA, gel filtration. To be noted: remark: other sources report otherwise.
Assay [25] deals with HLA-A*6802 (human). The description is as above. The conditions noted are these: remark: other sources report otherwise.
For assay [26], the target named is HLA-A*0206 (human). The assay is described as above. The conditions noted are these: remark: other sources report otherwise.
The target in assay [27] is HLA-A*0202 (human). The conditions noted are these: remark: other sources report otherwise. This is another data set of the same source.
The target of assay [28] is HLA-A*0203 (human). The conditions noted are these: remark: other sources report otherwise. The source holds these as a separate data set.
The target of assay [29] is HLA-A*1101 (human). The conditions noted are these: remark: other sources report otherwise. This is another data set of the same source.
A further assay concerns the target HLA-A*0301 (human). To be noted: remark: other sources report otherwise.
Assay [30] deals with HLA-A*0201 (human). As to the kind of experiment: inhibition of 125I probe peptide binding to purified HLA, gel filtration. To be noted: remark: other sources report otherwise.
Assay [31] addresses HLA-A*6802 (human). The conditions noted are these: remark: other sources report otherwise.
For the next assay, the target named is HLA-A*0101 (human). To be noted: remark: other sources report otherwise.

Where two headings read alike, the source gives them in different places.

Broadly, the IC50 is the point on the concentration scale where inhibition reaches its midpoint. In the case of ALDVYNGLL [Peptide 1177.02 … (PAP.299)], the values for the IC50 with HLA-A*0201 (human) [1] and in the assay with HLA-A*0203 (human) [2] were 73 nM and 256 nM, respectively.

For the molecule GLPEGDLVYV [Peptide 1389.22], the IC50 turned out to be 964 nM with HLA-A*6802 (human) [3] and 112 nM with HLA-A*0206 (human) [4]. As to PLLLWQPIPV [Peptide 63.0042 … (PAP.134.L2)], the half-inhibitory concentration (IC50) in the assay with HLA-A*0201 (human) [1] worked out at 238 nM; in the assay with HLA-A*0202 (human) [5], 47 nM; in the assay with HLA-A*0206 (human) [6], 336 nM. In the assay with HLA-A*0206 (human) [7], FMLCAGLWV [peptide 1418.22, HuK2.195.V9] gave an IC50 of 51 nM.

Consider RMMNDQLMFL [Peptide 1126.06], for which the IC50 with HLA-A*0206 (human) [4] is 40 nM. In the case of WVLTAAHCL [Kallikrein 59, 9 amino acids], the relative binding ratio with HLA-A*0201 (human) [8] worked out at 0.0003; in the assay with HLA-A*0202 (human) [9], 0.0018; in the assay with HLA-A*0203 (human) [10], 0.0001; in the assay with HLA-A*0206 (human) [11], 0.016.

The molecule ALFDIESKV [Peptide 1129.08] registered an IC50 with HLA-A*0202 (human) [12] of 0.7 nM. Regarding GVSIWNPIV [Peptide 60.0207 … (PAP.128.V9)], the results for the IC50 in the assay with HLA-A*0201 (human) [1], with HLA-A*0202 (human) [5] and with HLA-A*0203 (human) [2] were 455 nM, 269 nM and 909 nM, respectively. In the case of TLMSAMTNLA [Peptide 20.0312 … (PAP.112)], the IC50 in the assay with HLA-A*0201 (human) [13] came out at 385 nM; with HLA-A*0203 (human) [14], 37 nM; in the assay with HLA-A*6802 (human) [15], 6670 nM; with HLA-A*0206 (human) [16] it was 3700 nM. Regarding VYNGLLPPY [PAP (Prostatic Acid Phosphatase) peptide, position 302, 9 amino acids], the relative binding ratio (A*2401) with HLA-A*2401 (human) amounted to 0.032.

For SLHLLSNDMCA [Peptide 1419.14, HuK2.175], the 50% inhibitory concentration (IC50) with HLA-A*0201 (human) [17] was found to be 72 nM; with HLA-A*0203 (human) [18], 73 nM. KLRELSELSV [Peptide 63.0048 … (PAP.234.V10)]: the IC50 amounted to 263 nM in the assay with HLA-A*0201 (human) [1] and 1820 nM with HLA-A*6802 (human) [19]. Molecule VLAGGFFLL [Peptide 1126.10] came in with a concentration for half-maximal inhibition (IC50) with HLA-A*0202 (human) [12] of 0.2 nM. For the molecule VLAKELKFVV [Peptide 63.0034 … (PAP.30.V10)], the results for the half-inhibitory concentration (IC50) with HLA-A*6802 (human) [15] and with HLA-A*0206 (human) [16] were 2290 nM and 86 nM, respectively.

In the assay with HLA-A*0202 (human) [20], VLAGGFFLL [peptide 1126.10, PSM.27] returned an IC50 of 0.2 nM. With MLLRLSEPAEV [Peptide 1389.12 (PSA.118.V11)], the concentration for half-maximal inhibition (IC50) in the assay with HLA-A*0203 (human) [21] is 115 nM. Turning to RAVCGGVLVH [PSA 43, 10 amino acids], the relative binding ratio (IC50 of standard peptide / IC50 of test peptide) with HLA-A*1101 (human) [22] turned out to be 0.031. With SLLAKELKFV [Peptide 63.0033 … (PAP.29.L2)], the IC50 was determined as 3.8 nM with HLA-A*0203 (human) [14] and 6670 nM with HLA-A*6802 (human) [15]. For the molecule LLFFWLDRSV [peptide 1097.09, PAP.21], the IC50 with HLA-A*0202 (human) [23] came to 0.6 nM.

TLSVTWIGV [Peptide 60.0217 (PSA.5.V9)]: the IC50 with HLA-A*0202 (human) [24] was 4.9 nM; with HLA-A*0203 (human) [21] it was 40 nM; in the assay with HLA-A*6802 (human) [25], 229 nM; with HLA-A*0206 (human) [26], 712 nM. As to DLMLLRLSEPV [Peptide 1419.13, HuK2.120.V11], the IC50 in the assay with HLA-A*0201 (human) [17] stood at 50 nM.

On to HLLSNDMCV [peptide 1418.20, HuK2.177.V9], for which the concentration for half-maximal inhibition (IC50) came out at 102 nM with HLA-A*0202 (human) [27] and 278 nM in the assay with HLA-A*0203 (human) [28]. For WVLTAAHCI [PSA 55, 9 amino acids], the relative binding ratio in the assay with HLA-A*0201 (human) [8] is 0.0008.

On to VTKFMLCAGR [PSA position 188, 10 amino acids], for which, in the assay with HLA-A*1101 (human) [29], the relative binding ratio (IC50 of standard peptide / IC50 of test peptide) was 0.012. On to VFRHGDRSPI [PAP (Prostatic Acid Phosphatase) peptide, position 41, 10 amino acids], for which, in the assay with HLA-A*2401 (human), the relative binding ratio (A*2401) was 0.0005. GLHGQDLFGI [peptide 1166.11, PAP.196] yielded a half-maximal inhibitory concentration (IC50) with HLA-A*0202 (human) [23] of 0.9 nM. In the case of RAVCGGVLVH [PSA peptide, position 43, 10 amino acids], the relative binding ratio (IC50 of standard peptide / IC50 of test peptide) with HLA-A*0301 (human) was found to be 0.011.

In the assay with HLA-A*0202 (human) [23], ALFPPEGVSV [peptide 1419.61, PAP.122.V10] registered a concentration for half-maximal inhibition (IC50) of 1 nM. As for LMLLRLSEPA [Peptide 63.0014 (PSA.117)], the IC50 came out at 200 nM with HLA-A*0201 (human) [30] and 5000 nM with HLA-A*6802 (human) [25]. In the case of VTKFMLCAGR [PSA 188 10-mer peptide …], the relative binding ratio (IC50 of standard peptide / IC50 of test peptide) with HLA-A*0301 (human) was determined as 0.0003.

Take QLMFLERAFI [Peptide 1126.16]: in the assay with HLA-A*6802 (human) [3], the IC50 was 30 nM.

KVTEFMLCV [peptide 1418.21, HuK2.191.V9]: the IC50 with HLA-A*6802 (human) [31] is 6670 nM. In the case of LTQLGMEQHY [PAP peptide, position 70, 10 amino acids], the relative binding ratio (IC50 of standard peptide / IC50 of test peptide) in the assay with HLA-A*0101 (human) was found to be 0.62.

With GVSIWNPILV [Peptide 63.0041 … (PAP.128.V10)], the concentration for half-maximal inhibition (IC50) in the assay with HLA-A*0201 (human) [1] was 250 nM; in the assay with HLA-A*0202 (human) [5], 94 nM; in the assay with HLA-A*6802 (human) [19], 2290 nM; in the assay with HLA-A*0206 (human) [6], 451 nM. As to FLRPRSLQCV [Peptide 1419.07, HuK2.165], in the assay with HLA-A*0203 (human) [18], the IC50 came out at 4 nM. Take ALFDIESKV [peptide 1129.08, PSM.711]: the 50% inhibitory concentration (IC50) in the assay with HLA-A*0202 (human) [20] worked out at 0.7 nM. On to ALFPPEGVSI [Peptide 1419.6 … (PAP.122)], for which the IC50 was found to be 278 nM with HLA-A*0201 (human) [1], 133 nM with HLA-A*0203 (human) [2] and 2640 nM in the assay with HLA-A*0206 (human) [6].
